Test results from patent US20170165365A1 (SYMPHOGEN A S, published 2017).
Substitutions are numbered along the chain they refer to. Values belong to the binder of their own block, whether it stands above or below them.

Columns and labels:
murine HER4 antigen = target: T1, murine HER4 antigen (mouse, UniProt Q61527 26-652, limits assumed); assay: ELISA, coated mu HER4
T1 construct: In-house antigen coated for ELISA; also called mouse HER4
T1 sequence (looked up): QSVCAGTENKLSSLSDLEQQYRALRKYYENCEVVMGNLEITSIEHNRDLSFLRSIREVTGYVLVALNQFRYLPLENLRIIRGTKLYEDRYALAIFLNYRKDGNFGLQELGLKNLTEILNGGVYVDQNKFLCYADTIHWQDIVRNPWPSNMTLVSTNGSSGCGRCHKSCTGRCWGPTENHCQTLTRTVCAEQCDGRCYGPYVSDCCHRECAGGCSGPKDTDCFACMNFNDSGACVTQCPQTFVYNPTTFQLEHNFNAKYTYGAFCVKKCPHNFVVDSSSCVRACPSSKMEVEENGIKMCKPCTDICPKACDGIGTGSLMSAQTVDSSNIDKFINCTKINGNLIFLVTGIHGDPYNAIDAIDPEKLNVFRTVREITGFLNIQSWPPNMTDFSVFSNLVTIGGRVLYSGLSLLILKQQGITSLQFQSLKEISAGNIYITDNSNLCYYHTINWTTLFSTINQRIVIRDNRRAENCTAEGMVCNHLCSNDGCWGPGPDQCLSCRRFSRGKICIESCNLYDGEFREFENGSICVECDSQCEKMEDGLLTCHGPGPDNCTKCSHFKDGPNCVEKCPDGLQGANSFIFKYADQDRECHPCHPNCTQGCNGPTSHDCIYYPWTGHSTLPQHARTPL
Protocol: (§1) Antibody-antigen binding was measured by ELISA with coated antigens. Human antigens were obtained from Sino Biologicals. All other antigens were produced in-house by transient expression in CHO or HEK293 cells. Chimeric and humanized antibodies, as well as an isotype control antibody, were incubated with the coated antigens at different concentrations. After wash, bound antibodies were detected by HRP-(horse radish peroxidase)-conjugated secondary antibodies.

mouse HER3 antigen = target: T2, mouse HER3 antigen (mouse, UniProt Q61526 20-641, limits assumed); assay: ELISA, coated mu HER3
T2 construct: In-house antigen coated for ELISA; also called mouse antigen; murine HER3
Protocol: as §1

cynomolgus EGFR antigen [1] = target: T3, cynomolgus EGFR antigen (cynomolgus monkey, UniProt A0A2K5WK39 25-645); assay: SPR (ProteOn XPR36), IgG captured by anti-human Fc, soluble monovalent antigen, 1:1 fit
T3 construct: In-house antigen; also called cynomolgus antigen
Protocol: (§2) Kinetic binding analysis of the purified humanized variants was performed on a ProteOn™ XPR36 biosensor (BioRad, USA) employing an IgG capture assay as described by Canziani et al. (Anal. Biochem. (2004) 325:301-307) that allows for measurement of antibody affinities of whole IgG molecules against soluble antigen under monovalent conditions. Briefly, approximately 5000 resonance units (RU) of a monoclonal mouse anti-human IgG Fc antibody (GE Healthcare, Denmark) was conjugated to a GLC chip surface (BioRad, USA) according to the manufacturer's instructions, followed by capture of individual antibodies of the invention or a negative control on the anti-Fc sensor surface. […] Next, 250 μl monovalent antigen (Sino Biologicals) was injected at a flow rate of 50 μl/min in serial threefold dilutions from 100 nM stock to generate response curves. The chip surface was regenerated between cycles by stripping the captured antibody/antigen complexes off the surface with a 10-second injection of 3 M MgCl₂ (GE Healthcare, Denmark) repeated three times. Finally, binding responses were fitted to a Langmuir 1:1 binding model for calculation of the on-rate (kon or ka), off-rate (koff or kd) and affinity (KD) constants using double referencing.

[2] = target: T4, human HER2 antigen (Sino Biologicals) (human, UniProt P04626 23-652); assay: ELISA, coated hu HER2
T4 construct: Bought soluble antigen; also called human antigen
Protocol: as §1

mouse EGFR antigen = target: T5, mouse EGFR antigen (mouse, UniProt Q01279 25-647, limits assumed); assay: ELISA, coated mu EGFR
T5 construct: In-house antigen coated for ELISA; also called mouse antigen; murine EGFR
Protocol: as §1

mouse HER2 antigen = target: T6, mouse HER2 antigen (mouse, UniProt P70424 23-653, limits assumed); assay: ELISA, coated mu HER2
T6 construct: In-house antigen coated for ELISA; also called mouse antigen; murine HER2
Protocol: as §1

cynomolgus HER3 antigen = target: T7, cynomolgus HER3 antigen (cynomolgus monkey, UniProt G7PIG5 20-643); assay: ELISA, coated cy HER3
T7 construct: In-house antigen; also called cynomolgus antigen
Protocol: as §1

[3] = target: T8, human HER3 antigen (Sino Biologicals) (human, UniProt P21860 20-643); assay: ELISA, coated hu HER3
T8 construct: Bought soluble antigen; also called human antigen
Protocol: as §1

human HER4 antigen = target: T9, human HER4 antigen (human, UniProt Q15303 26-649, limits assumed); assay: ELISA, coated hu HER4
T9 construct: Antigen coated for ELISA
T9 sequence (looked up): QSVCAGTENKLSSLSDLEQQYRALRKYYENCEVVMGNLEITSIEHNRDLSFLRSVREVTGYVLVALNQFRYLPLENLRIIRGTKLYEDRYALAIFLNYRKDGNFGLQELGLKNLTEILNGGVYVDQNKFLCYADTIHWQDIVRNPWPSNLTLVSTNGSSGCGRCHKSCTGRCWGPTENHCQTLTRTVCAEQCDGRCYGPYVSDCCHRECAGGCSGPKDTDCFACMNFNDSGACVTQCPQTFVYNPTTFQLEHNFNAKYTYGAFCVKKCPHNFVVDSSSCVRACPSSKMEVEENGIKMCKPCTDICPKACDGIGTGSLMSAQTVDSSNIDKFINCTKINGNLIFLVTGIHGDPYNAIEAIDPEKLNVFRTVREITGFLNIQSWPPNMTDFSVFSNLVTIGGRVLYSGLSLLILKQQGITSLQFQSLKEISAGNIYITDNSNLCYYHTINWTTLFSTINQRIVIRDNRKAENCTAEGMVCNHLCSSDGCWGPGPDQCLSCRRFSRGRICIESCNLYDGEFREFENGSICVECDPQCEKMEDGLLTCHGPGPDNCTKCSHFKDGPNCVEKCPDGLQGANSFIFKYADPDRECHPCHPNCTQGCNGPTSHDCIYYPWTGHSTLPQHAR
Protocol: as §1

[4] = target: T4, human HER2 antigen (Sino Biologicals); assay: SPR (ProteOn XPR36), IgG captured by anti-human Fc, soluble monovalent antigen, 1:1 fit
Protocol: as §2

[5] = target: cynomolgus HER2 antigen (cynomolgus monkey); assay: as above
[6] = target: T10, human EGFR antigen (Sino Biologicals) (human, UniProt P00533 25-645); assay: ELISA, coated hu EGFR
T10 construct: Bought soluble antigen; also called human antigen
Protocol: as §1

cynomolgus EGFR antigen [7] = target: T3, cynomolgus EGFR antigen; assay: ELISA, coated cy EGFR
Protocol: as §1

[8] = target: T10, human EGFR antigen (Sino Biologicals); assay: SPR (ProteOn XPR36), IgG captured by anti-human Fc, soluble monovalent antigen, 1:1 fit
Protocol: as §2

T2 sequence (Q61526 20-641 limits assumed): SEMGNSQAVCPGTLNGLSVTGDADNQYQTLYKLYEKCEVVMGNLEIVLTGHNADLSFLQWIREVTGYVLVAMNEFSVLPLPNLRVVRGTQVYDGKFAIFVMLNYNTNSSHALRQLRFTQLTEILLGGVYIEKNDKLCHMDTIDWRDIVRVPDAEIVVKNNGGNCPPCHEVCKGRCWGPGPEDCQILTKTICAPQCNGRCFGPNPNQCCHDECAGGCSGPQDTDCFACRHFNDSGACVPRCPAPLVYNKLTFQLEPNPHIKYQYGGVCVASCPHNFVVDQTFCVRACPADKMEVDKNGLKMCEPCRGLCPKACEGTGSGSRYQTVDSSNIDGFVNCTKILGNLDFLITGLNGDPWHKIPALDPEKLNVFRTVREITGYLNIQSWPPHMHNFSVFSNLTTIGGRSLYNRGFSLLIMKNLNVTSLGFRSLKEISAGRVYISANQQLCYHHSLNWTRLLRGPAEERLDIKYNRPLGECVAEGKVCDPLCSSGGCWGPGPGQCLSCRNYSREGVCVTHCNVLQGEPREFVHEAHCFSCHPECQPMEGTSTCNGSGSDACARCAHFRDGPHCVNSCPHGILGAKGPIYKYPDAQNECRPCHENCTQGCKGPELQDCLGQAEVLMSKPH
T7 sequence (G7PIG5 entry or part of it): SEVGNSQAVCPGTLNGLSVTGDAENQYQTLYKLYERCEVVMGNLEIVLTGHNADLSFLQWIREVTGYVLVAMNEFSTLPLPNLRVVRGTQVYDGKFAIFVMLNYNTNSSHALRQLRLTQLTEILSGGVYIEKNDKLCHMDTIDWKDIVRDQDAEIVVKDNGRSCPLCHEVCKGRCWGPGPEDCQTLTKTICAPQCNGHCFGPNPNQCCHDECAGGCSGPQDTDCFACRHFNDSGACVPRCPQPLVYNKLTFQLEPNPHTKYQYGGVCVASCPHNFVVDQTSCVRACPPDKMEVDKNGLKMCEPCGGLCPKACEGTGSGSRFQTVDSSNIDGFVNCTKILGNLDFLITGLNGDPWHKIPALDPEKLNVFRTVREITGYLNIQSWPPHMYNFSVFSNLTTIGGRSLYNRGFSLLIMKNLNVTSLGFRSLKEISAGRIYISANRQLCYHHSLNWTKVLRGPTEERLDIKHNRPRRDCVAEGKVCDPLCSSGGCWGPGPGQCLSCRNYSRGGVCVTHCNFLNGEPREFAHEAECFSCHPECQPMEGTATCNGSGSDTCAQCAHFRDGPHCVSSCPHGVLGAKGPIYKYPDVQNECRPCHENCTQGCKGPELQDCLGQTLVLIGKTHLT
T6 sequence (P70424 23-653 limits assumed): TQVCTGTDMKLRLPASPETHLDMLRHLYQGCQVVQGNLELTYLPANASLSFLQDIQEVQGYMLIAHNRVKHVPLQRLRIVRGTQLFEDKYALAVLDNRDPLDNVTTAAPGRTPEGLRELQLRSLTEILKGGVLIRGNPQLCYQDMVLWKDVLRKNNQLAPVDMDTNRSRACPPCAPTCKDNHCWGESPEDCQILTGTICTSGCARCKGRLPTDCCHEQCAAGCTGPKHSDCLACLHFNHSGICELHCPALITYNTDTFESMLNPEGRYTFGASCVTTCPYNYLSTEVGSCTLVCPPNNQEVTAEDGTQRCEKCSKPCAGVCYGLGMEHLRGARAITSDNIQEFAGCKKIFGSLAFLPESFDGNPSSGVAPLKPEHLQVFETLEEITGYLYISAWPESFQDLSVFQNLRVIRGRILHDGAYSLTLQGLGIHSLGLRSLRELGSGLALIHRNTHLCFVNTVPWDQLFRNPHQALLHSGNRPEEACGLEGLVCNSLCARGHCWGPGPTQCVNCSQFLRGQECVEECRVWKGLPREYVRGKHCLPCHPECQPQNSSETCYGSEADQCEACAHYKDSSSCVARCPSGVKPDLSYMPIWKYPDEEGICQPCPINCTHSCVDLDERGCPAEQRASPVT

B1: humanized anti-EGFR antibody 10560 (antibody, V domains shown)
VH: QVQLVQSGAEVKKPGASVKLSCKASGYTFTSYWMQWVRQAPGQGLEWIGNINPSNGGTSFNEEFKSRATMTRDTSTSTVYMELSSLRSEDTAVYYCARDGGLYDGYYFDFWGQGTLVTVSS
VL: AIQLTQSPSSLSASVGDRVTITCKASQDVDTAVAWYQQKPGKAPKLLIYWASTRHTGVPSRFSGSGSGTDFTLTVSSLQPEDFATYFCQQYSSYPLTFGGGTKVEIK
notes: also called 10550 (misprint in some paragraphs)
binding result (murine HER4 antigen): no binding (tested: 40 nM) | binding result (mouse HER3 antigen): no binding (tested: 40 nM) | Kd (cynomolgus EGFR antigen [1]): 3.1 nM | binding result [2]: no binding (tested: 40 nM) | binding result (mouse EGFR antigen): no binding (tested: 40 nM) | binding result (mouse HER2 antigen): no binding (tested: 40 nM) | binding result (cynomolgus HER3 antigen): no binding (tested: 40 nM) | binding result [3]: no binding (tested: 40 nM) | binding result (human HER4 antigen): no binding (tested: 40 nM)

B3: chimeric anti-HER2 antibody 4517 (antibody, V domains shown)
VH: EVQLVESGGDLVKPGGSLKLSCAASGFTFSSYGMSWVRLTPDKRLEWVATISGGGSYTYYPDSVKGRFTISRDIAKSTLYLQMSSLKSEDTAVYYCARKGNYGNYGKLAYWGQGTSVTVS
VL: DIQMTQSPASLSVSVGETVTITCRASENIYSNLAWYQQEQGKSPQLLVYAATNLADGVPSRFSGSGSGTQYSLKINSLQSEDFGSYYCQHFWGTPWTFGGGTKLEIKR
notes: light chain entry is full length
binding result (murine HER4 antigen): no binding (tested: 40 nM) | binding result (mouse HER3 antigen): no binding (tested: 40 nM) | Kd [4]: 1.1 nM | koff [4]: 0.00029 s⁻¹ | kon [4]: 260000 M⁻¹ s⁻¹ | Kd [5]: 3.7 nM | koff [5]: 0.00086 s⁻¹ | kon [5]: 230000 M⁻¹ s⁻¹ | binding result (mouse EGFR antigen): no binding (tested: 40 nM) | binding result (mouse HER2 antigen): no binding (tested: 40 nM) | binding result [6]: no binding (tested: 40 nM) | binding result (cynomolgus EGFR antigen [7]): no binding (tested: 40 nM) | binding result (cynomolgus HER3 antigen): no binding (tested: 40 nM) | binding result [3]: no binding (tested: 40 nM) | binding result (human HER4 antigen): no binding (tested: 40 nM)

B6: chimeric anti-EGFR antibody 1565 (antibody, V domains shown)
VH: EVQLQQSGTELVKPGASVILSCKASGYTFTSYWMQWVKQRPGQGLEWIGNINPSNGGTSFNEEFKSRATLTVDKSSSTAYMQLSSLTSEDSAVYYCARDGGLYDGYYFDFWGQGTTLTVS
VL: NIVMTQSHKFMSTLIGARVSITCKASQDVDTAVAWYQQKPGQSPKLLIYWASTRHTGVPDRFTGSGSGTDFSLTVSNVQSEDLTDYFCQQYSSYPLTFGAGTKLELKR
notes: as for B3
binding result (murine HER4 antigen): no binding (tested: 40 nM) | binding result (mouse HER3 antigen): no binding (tested: 40 nM) | Kd (cynomolgus EGFR antigen [1]): 28 nM | koff (cynomolgus EGFR antigen [1]): 0.016 s⁻¹ | kon (cynomolgus EGFR antigen [1]): 580000 M⁻¹ s⁻¹ | Kd [8]: 0.35 nM | koff [8]: 0.00058 s⁻¹ | kon [8]: 1.7e+06 M⁻¹ s⁻¹ | binding result [2]: no binding (tested: 40 nM) | binding result (mouse EGFR antigen): no binding (tested: 40 nM) | binding result (mouse HER2 antigen): no binding (tested: 40 nM) | binding result (cynomolgus HER3 antigen): no binding (tested: 40 nM) | binding result [3]: no binding (tested: 40 nM) | binding result (human HER4 antigen): no binding (tested: 40 nM)

Now from value to binder:

binding result (murine HER4 antigen): no binding (tested: 40 nM) | binding result (mouse HER3 antigen): no binding (tested: 40 nM) | Kd (cynomolgus EGFR antigen [1]): 1.2 nM | binding result [2]: no binding (tested: 40 nM) | binding result (mouse EGFR antigen): no binding (tested: 40 nM) | binding result (mouse HER2 antigen): no binding (tested: 40 nM) | binding result (cynomolgus HER3 antigen): no binding (tested: 40 nM) | binding result [3]: no binding (tested: 40 nM) | binding result (human HER4 antigen): no binding (tested: 40 nM)
B2: humanized anti-EGFR antibody 11302 (antibody, V domains shown)
VH: B1 VH with G56L
VL: B1 VL

binding result (murine HER4 antigen): no binding (tested: 40 nM) | binding result (mouse HER3 antigen): no binding (tested: 40 nM) | Kd (cynomolgus EGFR antigen [1]): 0.35 nM | binding result [2]: no binding (tested: 40 nM) | binding result (mouse EGFR antigen): no binding (tested: 40 nM) | binding result (mouse HER2 antigen): no binding (tested: 40 nM) | binding result (cynomolgus HER3 antigen): no binding (tested: 40 nM) | binding result [3]: no binding (tested: 40 nM) | binding result (human HER4 antigen): no binding (tested: 40 nM)
B4: humanized anti-EGFR antibody 10292 (antibody, V domains shown)
VH: EVQLVESGGGLVQPGGSLRLSCAASGFAFSYSDMSWVRQAPGKRLEWVSYMSSAGDVTFYSDTVKGRFTISRDNAKNSLYLQVNSLRAEDTAVYYCVRHRDVAMDYWGQGTTVTVSS
VL: DIQMTQSPSSLSASVGDRATITCRSSQSLVHSNGNTYLHWYQQKPGKAPKLLIYKVSNRFSGVPSRFSGSGSGTDFTLTISSLQPEDFATYFCSQSTHVPTFGGGTKVEIK

binding result (murine HER4 antigen): no binding (tested: 40 nM) | binding result (mouse HER3 antigen): no binding (tested: 40 nM) | Kd (cynomolgus EGFR antigen [1]): 0.56 nM | binding result [2]: no binding (tested: 40 nM) | binding result (mouse EGFR antigen): no binding (tested: 40 nM) | binding result (mouse HER2 antigen): no binding (tested: 40 nM) | binding result (cynomolgus HER3 antigen): no binding (tested: 40 nM) | binding result [3]: no binding (tested: 40 nM) | binding result (human HER4 antigen): no binding (tested: 40 nM)
B5: humanized anti-EGFR antibody 11294 (antibody, V domains shown)
VH: B4 VH with M104I
VL: DVVMTQSPLSLPVTLGQPASISCRSSQSLVHSNLNTYLHWYQQRPGQSPRLLIYKVSNRFSGVPDRFSGSGSGTDFTLKISRVEAEDVGVYFCSQSTHVPTFGGGTKVEIK
